Where no end group is shown, it is not given here.
Tested on: spleen, liver and lung; macrophages
Assay: detection and cellular localisation of particles after iv administration
Conditions: 24 hours after intravenous infusion

## TAMRA-labeled PLP139-151-coupled particles: particles coupled with TAMRA-labeled PLP139-151 (CHCLGKWLGHPDK; cysteine pairing not given here; also: TAMRA label, position not given here, coupled to particles; UniProt P60202 139-151, looked up, fragment)
  cells taking up particles: marginal zone macrophages predominantly uptake

Source: patent US11413337B2, “Peptide conjugated particles for the treatment of inflammation” (Northwestern University, priority 2012, dated 2022)
